Patent US20220033512A1 (University of California, published 2022)

Experiments:
[1] = target: T1, human ENPP1, full length, over-expressed on HEK cells (human, UniProt P22413 1-925); assay: flow cytometry (mean fluorescence intensity) on HEK cells over-expressing full length ENPP1, varying mAb concentrations, fitted in Graph Pad Prism
T1 construct: whole, on cells
T1 sequence (looked up): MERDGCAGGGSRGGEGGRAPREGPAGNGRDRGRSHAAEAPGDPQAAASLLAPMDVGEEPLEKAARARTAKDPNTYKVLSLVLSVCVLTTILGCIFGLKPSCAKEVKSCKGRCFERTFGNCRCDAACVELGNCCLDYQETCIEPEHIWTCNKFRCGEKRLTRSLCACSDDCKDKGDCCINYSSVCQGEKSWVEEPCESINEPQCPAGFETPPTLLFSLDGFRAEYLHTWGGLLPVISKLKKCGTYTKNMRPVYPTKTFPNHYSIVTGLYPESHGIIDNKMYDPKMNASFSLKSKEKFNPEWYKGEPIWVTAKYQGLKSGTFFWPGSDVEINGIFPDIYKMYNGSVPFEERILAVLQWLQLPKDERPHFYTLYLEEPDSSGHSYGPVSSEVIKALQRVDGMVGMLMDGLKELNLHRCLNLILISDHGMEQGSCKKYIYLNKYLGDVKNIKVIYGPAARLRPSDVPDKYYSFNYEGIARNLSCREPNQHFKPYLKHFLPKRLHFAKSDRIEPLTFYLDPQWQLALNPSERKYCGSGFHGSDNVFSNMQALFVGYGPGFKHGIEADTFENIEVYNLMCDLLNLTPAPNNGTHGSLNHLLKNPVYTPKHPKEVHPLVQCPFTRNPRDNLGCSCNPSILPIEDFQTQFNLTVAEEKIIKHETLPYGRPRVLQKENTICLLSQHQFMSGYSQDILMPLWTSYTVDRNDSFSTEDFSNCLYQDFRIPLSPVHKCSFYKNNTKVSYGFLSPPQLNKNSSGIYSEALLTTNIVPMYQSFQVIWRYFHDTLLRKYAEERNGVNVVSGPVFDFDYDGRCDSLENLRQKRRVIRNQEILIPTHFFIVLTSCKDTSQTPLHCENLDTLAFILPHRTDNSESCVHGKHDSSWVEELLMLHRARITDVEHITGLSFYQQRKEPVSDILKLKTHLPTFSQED

[2] = target: T1, human ENPP1, full length, …; assay: flow cytometry (mean fluorescence intensity) on HEK cells over-expressing full length human ENPP1

Kd [1]: 3.52 nM
EC50 (read off the curve) [2]: ~4 nM
B1: 12-J-4 ENPP1 monoclonal antibody (antibody, V domains shown)
VH: EVMLVESGGGLVKPGGSLKLSCVASGFTFSSYTMSWVRQTPEKRLEWVATISGGGGNTYYPDSVKGRFTISRDNAKNTLYLQMSSLRSEDTALYYCARRHYGSSPYAMDYWGQGTSVTVSS
VL: DIQMTQTTSSLSASLGDRVTISCRASQDISNYLNWYQQKPDGTVKLLIYHKTRLHSGVPSRFSGSGSGTDYSLTISNLEQEDIATYFCQQGNMLPWTFGGGTKLEIK
notes: The antibody is a recombinant IgG1kappa made in a CHO cell line, from a hybridoma raised against human recombinant ENPP1; Heavy chain about 48 kD, light chain about 24 kD; also called ENPP1 mAb; ENPP1mAb
